Experimental data reported in patent publication US20170022281A1 (AbbVie / Abbott, published 2017).
Where a chain is given by its changes, count along the chain named.

T1: human PRLR (Biacore antigen) (human, UniProt P16471 25-234, limits assumed)
T1 construct: The construct injected over captured antibody is not described (a soluble form is likely); also called huPRLR
T1 sequence: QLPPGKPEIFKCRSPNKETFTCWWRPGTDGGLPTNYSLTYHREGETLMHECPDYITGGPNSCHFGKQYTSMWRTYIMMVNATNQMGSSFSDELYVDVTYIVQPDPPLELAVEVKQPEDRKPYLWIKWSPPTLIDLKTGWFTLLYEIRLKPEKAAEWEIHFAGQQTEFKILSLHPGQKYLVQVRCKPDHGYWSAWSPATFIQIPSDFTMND

T2: cyno PRLR (Biacore antigen) (cyno, UniProt A0A2K5WXK1 25-234)
T2 construct: also called cyPRLR
T2 sequence: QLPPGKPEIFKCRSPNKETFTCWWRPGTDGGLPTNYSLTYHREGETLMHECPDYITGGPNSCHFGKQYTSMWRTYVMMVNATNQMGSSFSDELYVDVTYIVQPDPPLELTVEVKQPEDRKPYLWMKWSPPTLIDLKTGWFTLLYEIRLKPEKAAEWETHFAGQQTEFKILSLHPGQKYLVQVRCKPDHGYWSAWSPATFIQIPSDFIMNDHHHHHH

T3: murine PRLR (Biacore antigen) (murine, UniProt Q08501 20-229, limits assumed)
T3 construct: also called muPRLR
T3 sequence (looked up): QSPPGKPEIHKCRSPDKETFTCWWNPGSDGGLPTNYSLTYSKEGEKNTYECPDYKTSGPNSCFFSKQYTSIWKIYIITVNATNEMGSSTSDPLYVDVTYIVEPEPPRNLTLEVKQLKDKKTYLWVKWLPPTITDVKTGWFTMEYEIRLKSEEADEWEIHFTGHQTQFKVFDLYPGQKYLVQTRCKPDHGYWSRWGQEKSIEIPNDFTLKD

T4: human PRLR on cells (human, UniProt P16471 25-622)
T4 sequence: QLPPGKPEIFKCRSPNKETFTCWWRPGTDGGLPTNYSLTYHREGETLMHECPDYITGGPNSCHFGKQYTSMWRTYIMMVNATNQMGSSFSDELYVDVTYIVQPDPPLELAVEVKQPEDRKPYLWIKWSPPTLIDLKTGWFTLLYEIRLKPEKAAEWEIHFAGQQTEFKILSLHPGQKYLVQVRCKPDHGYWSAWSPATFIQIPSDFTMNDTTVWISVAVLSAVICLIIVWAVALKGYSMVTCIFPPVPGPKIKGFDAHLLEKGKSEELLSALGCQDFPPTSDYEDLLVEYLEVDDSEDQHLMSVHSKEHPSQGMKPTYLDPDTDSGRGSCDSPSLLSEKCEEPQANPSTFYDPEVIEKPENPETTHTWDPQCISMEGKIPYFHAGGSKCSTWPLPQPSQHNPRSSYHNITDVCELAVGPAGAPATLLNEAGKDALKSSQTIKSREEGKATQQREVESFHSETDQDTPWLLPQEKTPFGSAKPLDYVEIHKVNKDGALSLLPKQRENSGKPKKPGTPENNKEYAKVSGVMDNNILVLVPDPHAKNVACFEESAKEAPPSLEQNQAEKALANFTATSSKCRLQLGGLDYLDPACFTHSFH

B1: LFA102 (antibody, human IgG1, kappa, V domains shown)
VH: EVQLVESGGGLVQPGGSLRLSCAVSGFTFSSYGMSWVRQAPGKRLEWVATVSSGGTYTYYPDSVKGRFTISRDNSKNTLYLQMNSLRAEDTAMYYCARHRGNYYATYYYAMDYWGQGTLVTVSS
VL: DIVLTQSPDSLAVSLGERATINCKASKSVSTSGYTYMHWYQQKPGQPPKLLIYLASNRESGVPDRFSGSGSGTDFTLTISPVQAEDVATYYCQHSGELPPSFGQGTKLEIKR
notes: humanized IgG1 kappa comparator (WO 2008022295)
B2: chAb8 (antibody, human IgG1, kappa, V domains shown)
VH: EVQLQQSGPELVKPGASVKISCKASGYTFTDYNIHWVKQSHGKSLEWIGYIYPNNDGTGYNQKFKSKATLTVDNSSSTAYMEVRSLTSEDSAVYYCARGDGNYVGDMDYWGQGTSVTVSS
VL: DIQMTQSPASLSASVGETVTITCRASENIYSYLAWYQQKQGKPPQLLVYNAKTLAEGVPSRFSGGGSGTQFSLKINSLQPEDFGSYYCQHHYATPFTFGSGTKLEIKT
notes: chimeric, murine variable and human G1/kappa constant regions
B3: chAb6 (antibody, human IgG1, kappa, V domains shown)
VH: QVQLQQPGAELVMPGSSVKLSCKASGYTFTTYWMHWVKQRPGQGLEWIGEIDPSDSYSNYNQKFKDKATLTVDKSSSTAYMQLSSLTSEDSAVYYCARNGGLGPAWFSYWGQGTLVTVSA
VL: DIVMTQSQKFMSTTVGDRVSITCKASQYVGTAVAWYQQKPGQSPKLLIYSASNRYTGVPDRFTDSGSGTDFTLTISNLQSEDLADYFCQQYSSYPWTFGGGTKLEIKT
notes: as for B2
B4: Ab39 (antibody, human IgG1, kappa, V domains shown)
VH: EVQLVQSGAEVKKPGSSVKVSCKASGYTFTSYWIHWVRQAPGQGLEWIGEIDPSDSYTNYNQKFKGRATLTVDKSSSTAYMELSSLRSEDTAVYYCARSFFTNWFAYWGQGTLVTVSS
VL: DVVMTQTPLSLSVTPGQPASISCRSSQSLVHSNGNTYLHWYLQKPGQSPQLLIYKVSNRFSGVPDRFSGSGSGTDFTLKISRVEAEDVGVYFCSQSTHVPFTFGGGTKVEIKR
notes: humanized from Ab7; G1; also called Ab4 HC.1a and Ab4 LC.1a
B5: Ab30 (antibody, human IgG1, kappa, V domains shown)
VH: B4 VH with Y32F, I34M, E50V, S56T, K74E, S99G, F100D, F101Y, T102S, A106T
VL: B4 VL with S28R, F101W
notes: humanized from Ab5; G1; also called Ab2 HC.1a and Ab2 LC.1a
B6: Ab40 (antibody, human IgG1, kappa)
heavy: not shown
light: DVVMTQTPLSLSVTPGQPASISCRSSQSLVHSNGNTYLHWYLQKPGQSPQLLIYKVSNRFSGVPDRFSGSGSGTDFTLKISRVEAEDVGVYYCSQSTHVPFTFGGGTKVEIKRTVAAPSVFIFPPSDEQLKSGTASVVCLLNNFYPREAKVQWKVDNALQSGNSQESVTEQDSKDSTYSLSSTLTLSKADYEKHKVYACEVTHQGLSSPVTKSFNRGEC
notes: humanized from Ab7; G1; also called Ab4 HC.1a and Ab4 LC.1b
B7: chAb5 (antibody, human IgG1, kappa, V domains shown)
VH: QVQLQQPGAELVRPGTSVKLSCKASGYTFTSFWMHWVKQRPGQGLEWIGVIDPSDTYTNYNQKFKGKATLTVDTSSSTAYMQLSSLTSEDSAVYYCARGDYSNWFTYWGQGTLVTVSA
VL: DVVMTQTPLSLPVSLGDQASISCRSSQRLVHSNGNTYLHWYLQKPGQSPKLLIYKVSNRFSGVPDRFSGSGSGTDFTLKISRVEAEDLGVYFCSQSTHVPWTFGGGTKLEIKT
notes: as for B2
B8: Ab48 (antibody, human IgG1, kappa, V domains shown)
VH: EVQLVQSGAEVKKPGASVKVSCKASGYTFTDYNIHWVRQAPGQGLEWIGYIYPNNDGTGYNQKFKSRATLTVDNSTSTAYMELRSLRSDDTAVYYCARGDGNYVGDMDYWGQGTTVTVSS
VL: DIQMTQSPSSLSASVGDRVTITCRASENIYSYLAWYQQKPGKPPKLLVYNAKTLAEGVPSRFSGSGSGTDFTLTISSLQPEDFATYYCQHHYATPFTFGQGTKLEIKR
notes: humanized from Ab8; G1; also called Ab3 HC.1a and Ab3 LC.1a

What follows are binders tested against T1, human PRLR (Biacore antigen) (assay: SPR simultaneous binding; PRLR held by surface mAb Ab19).
Procedure: (§1) Running buffer was HBS-EP+ (10 mM Hepes, pH7.4, 150 mM NaCl, 3 mM EDTA, 0.05% surfactant). Assay was performed at 12° C. using Biacore T200 and CM5 sensor chips with anti-human IgG (Pierce) amine-coupled in all 4 flow cells to ˜2000 RU.
(§2) Separate test mAbs were captured in flowcells 2, 3 & 4 (flowcell 1 was reference, no test mAb). All 4 flowcells were then blocked by injection with isotype control mAb at 50 ug/ml. All 4 flowcells were then injected with antigen or buffer only (buffer only is for double referencing, done for each mAb pair individually). All 4 flowcells were then injected with 2nd test mAb at 10 ug/ml. All 4 flowcells were then regenerated with glycine, pH1.5.

Binder | solution mAb binding, % of PRLR binding
B1 | 19%
B2 | -1%
B3 | -1%
B4 | -1%
B5 | -1%
B6 | -1%
B7 | 0%
B8 | -1%

What follows are binders tested against T1, human PRLR (Biacore antigen) (assay: SPR simultaneous binding; PRLR held by surface mAb LFA102).
Procedure: as §1, §2

Binder | solution mAb binding, % of PRLR binding
B1 | -2%
B2 | -2%
B3 | 90%
B4 | 92%
B5 | 103%
B6 | 35%
B7 | 102%
B8 | -2%

These binders were tested against T1, human PRLR (Biacore antigen) (assay: SPR Biacore).
In short: (§3)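 Association rate, dissociation rate and dissociation constant were measured by surface plasmon resonance on a Biacore instrument. PRLR antigen was tested at 600 nM, 66.67 nM and 7.41 nM, a 3-point, 9-fold dilution series. Constants came from a 1:1 binding model fit (local Rmax, mass-transport term included) in Biacore T200 Evaluation Software.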

Binder | Kd | koff | kon
B1 | 1.3 nM | 0.00073 s⁻¹ | 560000 M⁻¹ s⁻¹
B2 | 0.183 nM | 9.1e-05 s⁻¹ | 496000 M⁻¹ s⁻¹
B3 | 0.469 nM | 0.000536 s⁻¹ | 1.14e+06 M⁻¹ s⁻¹
B4 | 4.25 nM | 0.000715 s⁻¹ | 168000 M⁻¹ s⁻¹
B5 | 1.29 nM | 0.000437 s⁻¹ | 339000 M⁻¹ s⁻¹
B6 | 5.38 nM | 0.000823 s⁻¹ | 153000 M⁻¹ s⁻¹
B7 | 0.558 nM | 0.000199 s⁻¹ | 356000 M⁻¹ s⁻¹
B8 | 0.18 nM | 9.84e-05 s⁻¹ | 546000 M⁻¹ s⁻¹

The binders below were run against T2, cyno PRLR (Biacore antigen) (assay: SPR Biacore).
In short: as §3

Binder | Kd | koff | kon
B1 | 11 nM | 0.0095 s⁻¹ | 880000 M⁻¹ s⁻¹
B2 | 3.44 nM | 0.00177 s⁻¹ | 514000 M⁻¹ s⁻¹
B3 | 0.794 nM | 0.00103 s⁻¹ | 1.3e+06 M⁻¹ s⁻¹
B4 | 4.01 nM | 0.000613 s⁻¹ | 153000 M⁻¹ s⁻¹
B5 | 1.59 nM | 0.000523 s⁻¹ | 330000 M⁻¹ s⁻¹
B6 | 5.38 nM | 0.000719 s⁻¹ | 134000 M⁻¹ s⁻¹
B7 | 0.671 nM | 0.000223 s⁻¹ | 333000 M⁻¹ s⁻¹
B8 | 9.77 nM | 0.00563 s⁻¹ | 576000 M⁻¹ s⁻¹

Each binder was assayed against T3, murine PRLR (Biacore antigen) (assay: SPR Biacore).
In short: as §3

Binder | Kd | koff | kon
B1 | 26 nM | 0.016 s⁻¹ | 620000 M⁻¹ s⁻¹
B2 | 291 nM | 0.0538 s⁻¹ | 185000 M⁻¹ s⁻¹
B3 | 608 nM | 0.36 s⁻¹ | 591000 M⁻¹ s⁻¹
B4 | 742 nM | 0.0427 s⁻¹ | 57600 M⁻¹ s⁻¹
B5 | 40 nM | 0.0056 s⁻¹ | 140000 M⁻¹ s⁻¹
B6 | 1190 nM | 0.0534 s⁻¹ | 45000 M⁻¹ s⁻¹
B7 | 13.8 nM | 0.00277 s⁻¹ | 200000 M⁻¹ s⁻¹
B8 | 453 nM | 0.0983 s⁻¹ | 217000 M⁻¹ s⁻¹

These binders were tested against T1, human PRLR (Biacore antigen) (assay: SPR simultaneous binding; PRLR held by surface mAb Ab30).
Procedure: as §1, §2

Binder | solution mAb binding, % of PRLR binding
B1 | 35%
B2 | -1%
B3 | -1%
B4 | 0%
B5 | -1%
B6 | -1%
B7 | -1%
B8 | -1%

What follows are binders tested against T4, human PRLR on cells (assay: cell-based or functional assay).

Binder | Baf3-hPRLR proliferation IC50 | T47D pPRLR ELISA IC50
B1 | 0.56 mg/L | 0.069 µg/mL
B2 | 0.3 mg/L | –
B3 | 0.28 mg/L | –
B4 | 0.27 mg/L | –
B5 | 0.14 mg/L | –
B6 | 0.4 mg/L | –
B7 | 0.15 mg/L | –
B8 | 0.4 mg/L | –

These binders were tested against cyno PRLR on Baf3-cyPRLR cells (cyno) (assay: cell-based or functional assay).

Binder | Baf3-cyPRLR proliferation IC50
B1 | > 30 mg/L
B2 | 2.94 mg/L
B3 | 12.2 mg/L
B4 | 0.25 mg/L
B5 | 0.24 mg/L
B6 | 0.32 mg/L
B7 | 0.42 mg/L
B8 | 4.87 mg/L
